# Measured values from paper PMC6650080, “A novel Ca2+-binding protein that can rapidly transduce auxin responses during root growth” (PLoS Biology, 2019).
# B1: His6-CMI1 (natural protein, Arabidopsis, UniProt O81831 1-130, looked up)
# chain: MASPKSPTRPTQQNPQPNFHDFLPTMAGNLGGEGLIGELCNGFELLMDREKGVITFESLRRNAAAVLGLGDLTDEDVRCMIKEGDFDCDGALNQMEFCVLMFRLSPDLMEASRCLVTEVIEEEFGFTRRH
# notes: CMI1, Arabidopsis, At4g27280; also called His-CMI1; source: E. coli Rosetta (DE3), purified (Ni-NTA)
# Assays:
# His6-ICR1 = target: T1, His6-ICR1 (Arabidopsis, UniProt Q8LE98 1-344); assay: co-IP; purified His6-CMI1 and His6-ICR1, 1 μg each, 300 μL reaction buffer (20 mM Tris-HCl pH 7.5, 5 mM CaCl2, 0.1 mg/mL BSA, 200 mM NaCl, 1% Triton X-100), RT; anti-CMI1 antibodies and Protein A beads; blot with anti-poly-His; details: both partners purified
# T1 construct: ICR1, Arabidopsis; also called His-ICR1; source: E. coli Rosetta (DE3), purified (Ni-NTA)
# T1 sequence (looked up): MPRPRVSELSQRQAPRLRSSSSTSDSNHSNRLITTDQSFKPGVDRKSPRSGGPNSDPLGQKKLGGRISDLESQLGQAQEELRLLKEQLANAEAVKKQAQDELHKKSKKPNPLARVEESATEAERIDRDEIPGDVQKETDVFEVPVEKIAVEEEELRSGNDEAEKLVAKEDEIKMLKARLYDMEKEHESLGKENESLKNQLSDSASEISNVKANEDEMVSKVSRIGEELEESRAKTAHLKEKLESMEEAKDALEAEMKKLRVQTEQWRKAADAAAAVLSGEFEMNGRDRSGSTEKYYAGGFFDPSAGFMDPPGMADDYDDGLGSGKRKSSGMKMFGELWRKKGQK
# GST-ICR1 = target: T2, GST-ICR1 (Arabidopsis, UniProt Q8LE98 1-344); assay: pull-down; GST-ICR1 (1.2 μg) or GST (0.4 μg) on Glutathione sepharose, His6-CMI1 0.5 μg; 20 mM Tris-HCl pH 7.5, 5 mM CaCl2, 0.1 mg/mL BSA, 200 mM NaCl, 1% Triton X-100, RT; wash with 1 M NaCl; blot with anti-poly-His; details: both partners purified
# T2 construct: ICR1, Arabidopsis; also called glutathione S-transferase (GST)-ICR1; source: E. coli Rosetta (DE3), purified (Glutathione sepharose)
# T2 sequence (looked up): T1 sequence (looked up)
binder,measurement,setting,value
B1,binding result,His6-ICR1,binds
same,binding result,GST-ICR1,binds
